Variants at the floor of the assay were thinned out.
Assays:
biotinyl-Trp-oxazolone = assay: self-aminoacylation, catalytic enhancement (BWO) (fold over background); higher = more active; k-Seq, kA / k0A0; sequences stand for … in GGGAAUGGAUCCACAUCUACGAAUUC…UUCACUGCAGACUUGACGAAGCUG
Summary of the method: (§1)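 Mutagenized RNA pools (0.43 μM; 21-nt variable region) were treated with 2–1250 μM of each biotinyl-aminoacyl-oxazolone. Conditions were 50 μL HEPES/NaCl/KCl/MgCl2/CaCl2 buffer, 5% acetonitrile, pH 6.9–7.0, room temperature, 90 minutes. Catalytic enhancement, the median kA relative to the uncatalyzed rate, was derived from streptavidin capture, qPCR and Illumina sequencing.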

biotinyl-Ile-oxazolone = assay: self-aminoacylation, catalytic enhancement (BIO) (fold over background); higher = more active; k-Seq, kA / k0A0; sequences stand for … in GGGAAUGGAUCCACAUCUACGAAUUC…UUCACUGCAGACUUGACGAAGCUG
Summary of the method: as §1

biotinyl-Leu-oxazolone = assay: self-aminoacylation, catalytic enhancement (BLO) (fold over background); higher = more active; k-Seq, kA / k0A0; sequences stand for … in GGGAAUGGAUCCACAUCUACGAAUUC…UUCACUGCAGACUUGACGAAGCUG
Summary of the method: as §1

biotinyl-Met-oxazolone = assay: self-aminoacylation, catalytic enhancement (BMO) (fold over background); higher = more active; k-Seq, kA / k0A0; sequences stand for … in GGGAAUGGAUCCACAUCUACGAAUUC…UUCACUGCAGACUUGACGAAGCUG
Summary of the method: as §1

biotinyl-Phe-oxazolone = assay: self-aminoacylation, catalytic enhancement (BFO) (fold over background); higher = more active; k-Seq, kA / k0A0; sequences stand for … in GGGAAUGGAUCCACAUCUACGAAUUC…UUCACUGCAGACUUGACGAAGCUG
Summary of the method: as §1

biotinyl-Val-oxazolone = assay: self-aminoacylation, catalytic enhancement (BVO) (fold over background); higher = more active; k-Seq, kA / k0A0; sequences stand for … in GGGAAUGGAUCCACAUCUACGAAUUC…UUCACUGCAGACUUGACGAAGCUG
Summary of the method: as §1

| Sequence | self-aminoacylation (biotinyl-Trp-oxazolone) | self-aminoacylation (biotinyl-Ile-oxazolone) | self-aminoacylation (biotinyl-Leu-oxazolone) | self-aminoacylation (biotinyl-Met-oxazolone) | self-aminoacylation (biotinyl-Phe-oxazolone) | self-aminoacylation (biotinyl-Val-oxazolone) |
| --- | --- | --- | --- | --- | --- | --- |
| AUUCACCGAGGUCAUCGAGUG [Fam2.2 aminoacylation ribozyme variant] | 2.82 | 1.75 | 3.6 | 2.89 | 12.6 | 2.17 |
| AUUCACCGAGGUCAUCGGGUA [Fam2.2 aminoacylation ribozyme variant] | 4 | 3.33 | 3.22 | 2.93 | 25 | 3.97 |
| AUUCACCGAGGUCAUCGGGUG [Fam2.2 aminoacylation ribozyme variant] | 9.63 | 6.19 | 14.2 | 11.3 | 87 | 6.85 |
| AUUCACCGAGGUCAUCGGGUU [Fam2.2 aminoacylation ribozyme variant] | 2.7 | 2.26 | 3.15 | 2.61 | 9.59 | 2.84 |
| AUUCACCGAGUUCAUCGGGUG [Fam2.2 aminoacylation ribozyme variant] | 4.3 | 3.56 | 5.07 | 4.92 | 37.1 | 3.14 |
| AUUCACCUAAGUCAUCCGGUG [Fam2.2 aminoacylation ribozyme variant] | 10.3 | 5.54 | 12.2 | 9.71 | 63.4 | 5.61 |
| AUUCACCUAAGUCAUCGAGUG [Fam2.2 aminoacylation ribozyme variant] | 5.16 | 3.92 | 7.69 | 5.75 | 22.9 | 3.78 |
| AUUCACCUAAGUCAUCGGGGG [Fam2.2 aminoacylation ribozyme variant] | 2.27 | 1.92 | 2.5 | 2.48 | 10.9 | 1.76 |
| AUUCACCUAAGUCAUCGGGUG [Fam2.2 aminoacylation ribozyme variant] | 8.93 | 5.75 | 12.8 | 9.66 | 74.2 | 5.58 |
| AUUCACCUAAGUCAUCUGGUG [Fam2.2 aminoacylation ribozyme variant] | 2.98 | 2 | 3.72 | 2.52 | 16.6 | 1.86 |
| AUUCACCUAAGUCAUGGGGUG [Fam2.2 aminoacylation ribozyme variant] | 5.16 | 3.71 | 7.26 | 5.16 | 33.4 | 3.47 |
| AUUCACCUAAGUCCUCGGGUG [Fam2.2 aminoacylation ribozyme variant] | 6.98 | 4.5 | 10.1 | 7.52 | 45.8 | 4.11 |
| AUUCACCUACAUCAUCGGGUG [Fam2.2 aminoacylation ribozyme variant] | 3.07 | 2.19 | 3.91 | 3.63 | 22.1 | 2.06 |
| AUUCACCUACGUCACCGGGUG [Fam2.2 aminoacylation ribozyme variant] | 3.84 | 2.72 | 5.96 | 4.43 | 36.4 | 2.84 |
| AUUCACCUACGUCAUCGGGAG [Fam2.2 aminoacylation ribozyme variant] | 0.502 | 0.803 | 1.07 | 1.23 | 0.516 | 0.861 |
| AUUCACCUACGUCAUCGGUUG [Fam2.2 aminoacylation ribozyme variant] | 0.436 | 0.789 | 0.647 | 0.738 | 0.512 | 1.05 |
| AUUCACCUAGAACAUCGGGUG [Fam2.2 aminoacylation ribozyme variant] | 3.56 | 2.39 | 2.88 | 2.73 | 16.8 | 2.47 |
| AUUCACCUAGACCAUCGGGUG [Fam2.2 aminoacylation ribozyme variant] | 3.81 | 2.48 | 5.27 | 4.26 | 22.4 | 3.62 |
| AUUCACCUAGAUCACCGGGUG [Fam2.2 aminoacylation ribozyme variant] | 2.86 | 2.42 | 3.69 | 2.76 | 11.5 | 2.55 |
| AUUCACCUAGAUCAUCGGGGG [Fam2.2 aminoacylation ribozyme variant] | 2.13 | 1.79 | 2.08 | 2.29 | 8.71 | 1.91 |
| AUUCACCUAGCUAAUCGGGUG [Fam2.2 aminoacylation ribozyme variant] | 1.85 | 1.6 | 2.05 | 1.93 | 4.49 | 1.62 |
| AUUCACCUAGCUCAUAGGGUG [Fam2.2 aminoacylation ribozyme variant] | 0.658 | 1.08 | 1.37 | 1.24 | 1.04 | 1.13 |
| AUUCACCUAGCUCAUCGGAUG [Fam2.2 aminoacylation ribozyme variant] | 0.452 | 0.779 | 0.772 | 0.609 | 0.472 | 0.82 |
| AUUCACCUAGGACAGCGGGUG [Fam2.2 aminoacylation ribozyme variant] | 2 | 2.23 | 2.58 | 2.49 | 15.1 | 2.21 |
| AUUCACCUAGGACAUCGGAUG [Fam2.2 aminoacylation ribozyme variant] | 0.529 | 0.988 | 0.999 | 1.06 | 0.553 | 1.29 |
| AUUCACCUAGGACAUCGGGCG [Fam2.2 aminoacylation ribozyme variant] | 2.27 | 2.31 | 2.79 | 2.2 | 15.1 | 2.38 |

| Sequence | self-aminoacylation (biotinyl-Trp-oxazolone) | self-aminoacylation (biotinyl-Ile-oxazolone) | self-aminoacylation (biotinyl-Leu-oxazolone) | self-aminoacylation (biotinyl-Met-oxazolone) | self-aminoacylation (biotinyl-Phe-oxazolone) | self-aminoacylation (biotinyl-Val-oxazolone) |
| --- | --- | --- | --- | --- | --- | --- |
| AUUCACCUAGGACAUCGGUUG [Fam2.2 aminoacylation ribozyme variant] | 0.663 | 0.888 | 1.28 | 0.919 | 2.89 | 1.03 |
| AUUCACCUAGGACAUGGGGUG [Fam2.2 aminoacylation ribozyme variant] | 5.18 | 3.4 | 7.25 | 5.06 | 42.9 | 3.42 |
| AUUCACCUAGGACCUCGGGUG [Fam2.2 aminoacylation ribozyme variant] | 3.54 | 2.77 | 3.69 | 3.6 | 20.7 | 2.63 |
| AUUCACCUAGGCCAUAGGGUG [Fam2.2 aminoacylation ribozyme variant] | 2.58 | 2.09 | 2.54 | 2.45 | 4.48 | 2.11 |
| AUUCACCUAGGCCAUCGGGAG [Fam2.2 aminoacylation ribozyme variant] | 1.05 | 1.1 | 0.965 | 1.69 | 0.861 | 1.39 |
| AUUCACCUAGGCCAUCGGGUG [Fam2.2 aminoacylation ribozyme variant] | 4.09 | 3.04 | 5.51 | 4.47 | 28.6 | 3.45 |
| AUUCACCUAGGCCAUCGUGUG [Fam2.2 aminoacylation ribozyme variant] | 0.88 | 0.998 | 0.946 | 0.898 | 2.6 | 0.966 |
| AUUCACCUAGGGCAGCGGGUG [Fam2.2 aminoacylation ribozyme variant] | 7.98 | 5.78 | 7.39 | 7.29 | 39.8 | 4.76 |
| AUUCACCUAGGGCAUCGGAUG [Fam2.2 aminoacylation ribozyme variant] | 0.646 | 0.923 | 0.894 | 0.506 | 0.411 | 0.873 |
| AUUCACCUAGGGCAUCGGCUG [Fam2.2 aminoacylation ribozyme variant] | 1.64 | 1.75 | 2.42 | 2.03 | 7.35 | 2.01 |
| AUUCACCUAGGGCAUCGGGCG [Fam2.2 aminoacylation ribozyme variant] | 2.7 | 3.54 | 4.74 | 3.47 | 15.7 | 4.35 |
| AUUCACCUAGGGGAUCGGGUG [Fam2.2 aminoacylation ribozyme variant] | 4.28 | 3.44 | 6.82 | 4.34 | 32 | 3.26 |
| AUUCACCUAGGUAAUCGGGUG [Fam2.2 aminoacylation ribozyme variant] | 2.81 | 1.85 | 3.64 | 2.8 | 17.5 | 1.85 |
| AUUCACCUAGGUAAUGGGGUG [Fam2.2 aminoacylation ribozyme variant] | 4.53 | 2.4 | 6.27 | 5.17 | 27.6 | 2.58 |
| AUUCACCUAGGUCAACGCGUG [Fam2.2 aminoacylation ribozyme variant] | 5.44 | 3.59 | 7.6 | 5.53 | 43.4 | 3.6 |
| AUUCACCUAGGUCAACGGAUG [Fam2.2 aminoacylation ribozyme variant] | 0.259 | 0.758 | 0.549 | 0.667 | 0.356 | 0.726 |
| AUUCACCUAGGUCAACGGGUU [Fam2.2 aminoacylation ribozyme variant] | 0.946 | 1.22 | 1.26 | 1.33 | 0.45 | 1.16 |
| AUUCACCUAGGUCACCAGGUG [Fam2.2 aminoacylation ribozyme variant] | 1.64 | 1.51 | 1.61 | 1.51 | 1.24 | 1.49 |
| AUUCACCUAGGUCACCGGGUU [Fam2.2 aminoacylation ribozyme variant] | 3.01 | 1.77 | 2.59 | 2.18 | 10 | 1.98 |
| AUUCACCUAGGUCACGGGGUG [Fam2.2 aminoacylation ribozyme variant] | 4.51 | 2.98 | 5.76 | 4.08 | 22.1 | 3.03 |
| AUUCACCUAGGUCAGAGGGUG [Fam2.2 aminoacylation ribozyme variant] | 1.68 | 1.1 | 1.49 | 1.36 | 4.38 | 1.14 |
| AUUCACCUAGGUCAGCGCGUG [Fam2.2 aminoacylation ribozyme variant] | 11 | 6.84 | 14.9 | 10.9 | 71.2 | 6.75 |
| AUUCACCUAGGUCAGCGGGUA [Fam2.2 aminoacylation ribozyme variant] | 2.05 | 2.12 | 3.01 | 2.18 | 10.5 | 2.08 |
| AUUCACCUAGGUCAUAGUGUG [Fam2.2 aminoacylation ribozyme variant] | 0.453 | 0.658 | 0.67 | 0.625 | 0.512 | 0.727 |
| AUUCACCUAGGUCAUCCCGUG [Fam2.2 aminoacylation ribozyme variant] | 5.25 | 3.32 | 4.87 | 4.13 | 26.7 | 3.25 |
